Test results from patent US20240279318A1 (published 2024).

Tests used:
[1] = target: AFP158 loaded T2 cells (human;, UniProt P61769 21-119); test: flow cytometry
[2] = target: AFP158/HLA-A*02:01 complex; test: SPR; head prints KD(1/s)
[3] = target: A*02:03; test: SPR
[4] = target: A*02:11; test: SPR; low fitting confidence
[5] = target: A*02:07; test: SPR; low fitting confidence
[6] = target: A*02:02; test: SPR; low fitting confidence
[7] = target: A*02:05; test: SPR; low fitting confidence
[8] = target: A*02:06; test: SPR; low fitting confidence
[9] = target: A*02:11; test: SPR
[10] = target: A*02:07; test: SPR
[11] = target: A*02:02; test: SPR
[12] = target: A*02:05; test: SPR
[13] = target: A*02:06; test: SPR
[14] = target: AFP158/HLA-A*02:01 complex; test: SPR

B1: AS190259 VL1VH1 scFv-mIgG2aFc (Fc fusion)
chain: SSELTQDPAVSVALGQTVRITCQGGGYYVNWYQQKPGQAPVLVIYLNTNRPSGIPDRFSGSSSGNTASLTITGAQAEDEADYYCQSADSSGNSAVFGGGTKLTVLGGGGSGGGGSGGGGSEVQLVESGGGLVQPGGSLRLSCAASGFTFSSYAMSWVRQAPGKGLEWVSAINSGGGSTYYADSVKGRFTISRDNSKNTLYLQMNSLRAEDTAVYYCAKAASGYGGSWWGDATLDAWGQGTLVTVSS
- EC50 [1]: 3.56 nM
- Kd [2]: 130 nM

B2: AS170036 (Fc fusion)
chain: QLVLTQPSSVSGTPGQTVTISCAGTSSDVGSENYVSWYRQLPGTAPKLLIYQVNKRASGIADRFSGSKSGNTASMTISGLQSADEADYYCASYRSSDHNIVFGGGTHLTVLGGGGSGGGGSGGGGSAVQLVESGGGLVQPGGSLRLSCTASGFTFSSYAMSWVRQAPGKGLEWVSTINSGTGSPYYADSVKGRFTISRDNAKNTLYLQLNSLKTEDTAMYYCAKNFFDGSWFLGPPAMDYWGKGTLVTISS
- Kd [3]: 38 µM
- Kd [4]: > 28 µM
- Kd [5]: > 4.8 µM
- Kd [6]: > 5 µM
- Kd [7]: > 100 µM
- Kd [8]: > 3.1 µM

B3: AS179723 (Fc fusion)
chain: QAGLTQPPSMSGSPRQSVTISCTGSSNNIGGNYVNWYQHLPGTAPKLLIYDNKNRPSGVPEQISGSKSGSSASLTITGLQAEDEGDYYCASWDDSLSAVVFGGGTHLTVLGGGGSGGGGSGGGGSEVQLVESGGGLVQPGGSLRLSCAASGFTFLNYAMSWVRQAPGKGLEWVSSNSGAGSTYYSDSVKGRFTISRDYAKNVVYLQLNSLKTEDTGMYYCAKGTNVGSWSSLHYWGQGTQVTVSS
- Kd [9]: 297 nM
- Kd [3]: 2.57 µM
- Kd [10]: 1270 nM
- Kd [11]: 32.2 µM
- Kd [12]: 29 µM
- Kd [13]: 114 nM

B4: AS170036 VL1VH1 scFv-mIgG2aFc (Fc fusion)
chain: QSALTQPRSVSGSPGQSVTISCAGTSSDVGSENYVSWYQQHPGKAPKLMIYQVNKRASGVPDRFSGSKSGNTASLTISGLQAEDEADYYCASYRSSDHNIVFGGGTKLTVLGGGGSGGGGSGGGGSEVQLVESGGGLVQPGGSLRLSCAASGFTFSSYAMSWVRQAPGKGLEWVSTINSGTGSPYYADSVKGRFTISRDNSKNTLYLQMNSLRAEDTAVYYCAKNFFDGSWFLGPPAMDYWGQGTLVTVSS
- Kd [14]: 256 nM
- EC50 [1]: 8.79 nM
